In US20250340659A1 (PETMEDIX, published 2025):

B1: PMX055 (antibody)
heavy: EVQLEESGGDLVKPEGSLRLSCVVSGFTLSTFGMSWVRQAPGKGLQWVAYISSDGRSTSYTDAVKGRFTISRDNAKNTLYLQMNSLRTDDTAVYYCVQLGRGFGIDYWGHGTSLFVSSASTTAPSVFPLAPSCGSTSGSTVALACLVSGYFPEPVTVSWNSGSLTSGVHTFPSVLQSSGLYSLSSMVTVPSSRWPSETFTCNVAHPASKTKVDKPVPKRENGRVPRPPDCPKCPAPESLGGPSVFIFPPKPKDTLLIARTPEVTCVVVDLGREDPEVQISWFVDGKQMQTAKTQPREEQFNGTYRVVSVLPIGHQDWLKGKQFTCKVNHIGLPSPIERTISKARGQAHQPSVYVLPPSREELSKNTVSLTCLIKDFFPPDIDVEWQSNGQQEPESKYRTTPPQLDEDGSYFLYSKLSVDKSRWQRGDTFICAVMHEALHNHYTQKSLSHSPGK
VL: SYVLTQLPSKNVTLRQPAHIPCGGDNIGSKSVHWYQQKLGQAPVLIIYYDTSRPTGIPERFSGANSGNTATLTISGALAEDEADYYCQVWDSSAAVFGGGTHLTVL
notes: also called PMX55
B2: PMX057 (antibody, V domains shown)
VH: EVQLVESGGDLVKPEGSLRLSCVVSGFTFNNYGMSWVRQAPGKGLQWVAYISIDGRSTSYTDAVKGRFTISRDNAKNTLYLHINSLRTEDTAVYYCTKLGRGFTFGYWGQGTLVTVSS
VL: SYVLTQLPSKNVTLKQPAHITCGGDNIGSKSVHWYQQKLGQAPALIIYYDSSRPTGIPERFSGANSGNTATLTISGALAEDEADYYCQVWDSSVSVFGGGTHLTVL
notes: also called PMX57
B3: PMX056 (antibody)
heavy: EVQLVESGGDLVKPEGSLRLSCVVSGFTLSSYGMSWVRQAPGRGLQWVAYISSDGRSTSYTDAVKGRFTISRDNAKNTLYLQMNSLRSEDTAVYYCVQLGRGFGMDYWGHGTSLFVSSASTTAPSVFPLAPSCGSTSGSTVALACLVSGYFPEPVTVSWNSGSLTSGVHTFPSVLQSSGLYSLSSMVTVPSSRWPSETFTCNVAHPASKTKVDKPVPKRENGRVPRPPDCPKCPAPESLGGPSVFIFPPKPKDTLLIARTPEVTCVVVDLGREDPEVQISWFVDGKQMQTAKTQPREEQFNGTYRVVSVLPIGHQDWLKGKQFTCKVNHIGLPSPIERTISKARGQAHQPSVYVLPPSREELSKNTVSLTCLIKDFFPPDIDVEWQSNGQQEPESKYRTTPPQLDEDGSYFLYSKLSVDKSRWQRGDTFICAVMHEALHNHYTQKSLSHSPGK
VL: SYVLTQLPSKNVTLKQPAHITCGGDNIGSKSVHWYQQKLGQAPVVIIYYDSTRPTGIPERFSGANSGNTATLTISGALAEDEADYYCQVWDSSAAVFGGGTHLTVL
notes: also called PMX56
B4: PMX052 (antibody, V domains shown)
VH: EVQLVESGGDLVKPAGSLRLSCVASGFTFSSYSMSWVRQAPEKGLQLVAGISGGGSRTYYSDAVKGRFTISRDNAKNTVYLQMNSLRAEDTAIYYCAKDGGSWAGYNFDYWGQGTLVTVSS
VL: DIVMTQTPPSLSVSPRETASISCKASQSLLHSDGSTYLDWYLQKPGQSPQLLIYLGSNRFTGVSDRFSGSGSGTEFTLRISRVEANDTGVYYCGQGTQLPYTFGQGTELEIK
notes: also called PMX52
B5: PMX047 (antibody, V domains shown)
VH: EVQLVESGGDLVKPGGSLRLSCVASGFIFSSYSMSWVRQAPEKGLQLVAGINSAGSSTYYTDAVKGRFTISRDNAKNTVYLQMNSLRAEDTAIYYCAKRWVFDFWGQGTLVTVSS
VL: HIVMTQTPLSLSVSPGEPASISCKASQSLLLSYGNTYLYWFRQKPGQSPQRLIYKVSNRDPGVPDRFSGSGSGTDFTLRISRVEADDAGVYYCGQGIQDPFTFGQGTKLEIK
notes: also called PMX47
B6: PMX053 (antibody, V domains shown)
VH: EVQLVESGGDLVKPAGSLRLSCVASGFTFSSYSMSWVRQAPEKGLQLVAGINSAGSSTYYTDAVKGRFTISRDNAKNTVYLQMNSLRAEDTAIYYCAKRWVFDYWGQGTLVTVSS
VL: DIVMTQTPLSLSVSPGEPASISCKASQSLPHSLGNTYLYWFRQKPGQSPQRLIYKVSNRDPGVPDRFSGSGSGTDFTLRISRVEADDAGIYYCGQGIQDPFTFGQGTKLEIK
notes: also called PMX53
B7: PMX054 (antibody, V domains shown)
VH: EVHLVESGGDLVKPEGSLRLSCVVSGFTFSSYDMSWVRQAPGKGLQWVAYISSDGRSTGYTDAVKGRFTISRDNAKKTLYLQMNSLRSEDTAVYYCAKETPRWGFDYWGQGTLVTVSS
VL: SYVLTQLPSVSVTLRQTARITCGGASIGSKNVYWHQQKLGQAPLLIIYDDSSRPSGIPERFSGANSGNTATLTISGALAEDEADYYCQVWDSSTSVFGGGTHLTVL
notes: also called PMX54
B8: PMX051 (antibody, V domains shown)
VH: EVQLVESGGDLVKPGGSLRLSCVASGFSFNTYHMNWVRQAPGKGLHWVAFINSDGGGTSYADTVKGRFTISRDYAKNTLYLQMNSLRAEDTAVYYCVSGSIWTHFDYWGQGTLVTVSS
VL: SYVLTQLPSVSMTLRQTAHITCGGDIIGSKSVYWYQQKLGQAPVLIIYRDTNRPTGIPERFSGASSGNTATLTISGALAEDEADYYCQVWDSSTQAVFGGGTHLTVL
notes: also called PMX51
B9: PMX105 (antibody, V domains shown)
VH: EVQLVESGGDLVKPGGSLRLSCVASGFTFNTYHMNWVRQAPGKGLHWVAFINSGGSGTSYEDTVQGRFTISRDYAKNTLYLQMNSLRAEDTAVYYCACGSIWTHFDYWGQGTLVTVSS
VL: SYVLTQLPSVSVTLRQTAHITCGGDIIGSKSVYWYQQKLGQAPVMIIYRDNNRPTGIPERFSGASSGNTATLTISGSLAEDEADYYCQVWDSRTQALFGGGTHLTVL

Assays:
[1] = biological target: T1, canine OX40L, full length membrane form, expressed on HEK293 cells (canine); experiment: flow cytometry
T1 construct: also called OX40L expressing HEK; HEK OX40L cells
T1 chain: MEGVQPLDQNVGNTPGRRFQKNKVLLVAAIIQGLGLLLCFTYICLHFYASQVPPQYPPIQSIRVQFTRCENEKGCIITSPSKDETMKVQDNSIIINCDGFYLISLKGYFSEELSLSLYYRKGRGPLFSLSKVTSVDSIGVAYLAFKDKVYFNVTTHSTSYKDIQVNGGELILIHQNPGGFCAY
How it was run: (§1)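 CHO supernatants at 1, 5 or 10 μg/ml in PBS/3% FBS incubated 30′ on ice with cells surface-expressing canine OX40L. Bound antibody detected with fluorescent anti-canine Fc secondary (1:1000, 30 min, dark) and measured by flow cytometry, with parental WT HEK signal subtracted where stated.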

[2] = biological target: T2, recombinant canine OX40L ECD-TNCc-HIS protein (canine); experiment: SPR Koff (kd1)
T2 construct: also called Trimeric OX40L probe (HIS tag); trimeric canine OX40L
T2 chain: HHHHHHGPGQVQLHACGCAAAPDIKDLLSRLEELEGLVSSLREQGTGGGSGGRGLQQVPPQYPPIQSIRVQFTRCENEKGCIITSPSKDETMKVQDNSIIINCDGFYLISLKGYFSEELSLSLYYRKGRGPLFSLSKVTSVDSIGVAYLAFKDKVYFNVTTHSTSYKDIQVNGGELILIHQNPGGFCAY
Procedure: (§2) Affinity (Kd) of OX40L antibodies is measured by SPR, using a recombinant canine OX40L ECD-TNCc-HIS protein (Seq ID 811) as the capturing agent (FIG. 5B).
(§3) Functional affinity is determined using a Biakore 8K (Cytiva). in brief, purified OX40L ECD-TNCc-HIS protein is covalently bound at low density to the surface of a CM5 sensor chip (Cytiva) by amine coupling, using the manufacturer's recommended protocol. Candidate antibodies are subsequently passed across the chip surface at a range of concentrations and affinity determined using the dedicated software (Biacore Insight Evaluation Software). Curves were fitted using a bivalent analyte binding model.

[3] = biological target: T2, recombinant canine OX40L ECD-TNCc-HIS …; experiment: SPR Koff (kd2)
Procedure: as §2, §3

[4] = biological target: T1, canine OX40L, full length membrane …; experiment: cell-based or functional assay
[5] = biological target: T2, recombinant canine OX40L ECD-TNCc-HIS …; experiment: SPR KD1, bivalent analyte model
Procedure: as §2, §3

[6] = biological target: T1, canine OX40L, full length membrane …; experiment: flow cytometry, OX40L HEK minus WT HEK
How it was run: as §1

Binder | GEO mean OX40L expressing HEK [1] | koff [2] [s⁻¹] | koff [3] [s⁻¹] | % Signal Inhibition Average [4] [%] | % Signal Inhibition Rep1 [4] [%] | % Signal Inhibition Rep2 [4] [%] | % Signal Inhibition Rep3 [4] [%] | Kd [5] [nM] | GEO mean difference [6]
B1 | 3.26e+06 | 0.00366 | 0.401 | 52.8 | 48.3 | 57.7 | 52.3 | 5.43 | 3.23e+06
B2 | 3.32e+06 | 0.00472 | 0.22 | 66 | 52.1 | 72 | 73.9 | 1.29 | 3.29e+06
B3 | 3.16e+06 | 0.0148 | 0.000624 | 44.3 | 27.3 | 57 | 48.5 | 61 | 3.13e+06
B4 | 765000 | 0.00276 | 0.0725 | 22.2 | 15.7 | 29.2 | 21.7 | 12 | 734000
B5 | 1.95e+06 | 0.000451 | 1.5e-05 | 61.6 | 49.3 | 73.1 | 62.3 | 12.5 | 1.92e+06
B6 | 3.03e+06 | 0.000587 | 0.565 | 39.7 | 24.5 | 45.8 | 48.9 | 3.4 | 3e+06
B7 | 3.27e+06 | 0.0345 | 0.0848 | 32 | 21 | 32.8 | 42 | 5.76 | 3.24e+06
B8 | 3.94e+06 | 0.00119 | 4.81 | 84.1 | 82.2 | 75.3 | 94.7 | 7.92 | 3.92e+06
B9 | 584000 | 0.00174 | 1.23 | 84.2 | 85.4 | 94.8 | 72.5 | 17.6 | 580000
